T1: recombinant human CD86 (ACROBiosystems) (human, UniProt P42081 26-247, limits assumed)
T1 construct: counted here as a B7 family member
T1 sequence (looked up): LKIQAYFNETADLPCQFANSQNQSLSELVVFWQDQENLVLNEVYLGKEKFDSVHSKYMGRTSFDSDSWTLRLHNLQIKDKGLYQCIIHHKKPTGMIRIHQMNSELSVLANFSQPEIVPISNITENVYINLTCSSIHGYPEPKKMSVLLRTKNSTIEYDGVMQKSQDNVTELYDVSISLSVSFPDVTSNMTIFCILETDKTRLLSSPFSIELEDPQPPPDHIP

T2: recombinant human B7-H2 (ACROBiosystems) (human, UniProt O75144 19-258, limits assumed)
T2 construct: counted here as a B7 family member
T2 sequence (looked up): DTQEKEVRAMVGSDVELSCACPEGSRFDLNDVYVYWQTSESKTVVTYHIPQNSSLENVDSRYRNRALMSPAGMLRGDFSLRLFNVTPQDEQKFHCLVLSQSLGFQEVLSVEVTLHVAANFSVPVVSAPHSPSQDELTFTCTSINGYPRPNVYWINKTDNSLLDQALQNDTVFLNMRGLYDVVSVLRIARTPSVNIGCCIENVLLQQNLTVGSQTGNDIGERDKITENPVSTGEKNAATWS


Columns and labels:
[1] = target: T1, recombinant human CD86 (ACROBiosystems); assay: ELISA, coated recombinant protein
Method: (§1) Binding specificity of the chimeric anti-human CD47 mAbs was determined by ELISA. A 96-well high-adsorption ELISA plate was coated with 1 μg/mL of the recombinant human PD1, CD28, CTLA4, ICOS, BTLA, CD47, PD-L2, CD80, CD86, B7-H2, CD47, SIRPα and SIRPγ (all from ACROBiosystems), at 100 μL per well using carbonate buffer solution, pH=9.6 at 4° C. overnight. The plate was washed 5 times with PBST, and then blocked using PBST with 1% BSA, 300 μL/well, and incubated at 25° C. for 1 hour, and then washed 5 times with PBST. The chimeric anti-human CD47 mAb samples serially diluted in PBST with 1% BSA and the control CC-90002 and the isotype control were added, 100 μL/well, incubated at 25° C. for 1 hour, and then washed 5 times with PBST. The horseradish peroxidase-labeled anti-human IgG antibody (Chemicon, catalog number AP309P) diluted 1:10000 in PBST with 1% BSA was then added, 100 μL per well, and incubated at 25° C. for 1 hour. The plate was washed 5 times with PBST. The colorimetric substrate TMB was added, 100 μL/well, and developed at room temperature for 10 minutes. 1M H₂SO₄ was added, 100 μL/well, to stop the development. The absorbance at 450 nm was read on a microplate reader.

[2] = target: T2, recombinant human B7-H2 (ACROBiosystems); assay: ELISA, coated recombinant protein
Method: as §1

[3] = target: recombinant human SIRPγ (ACROBiosystems) (human, UniProt Q9P1W8 29-360, limits assumed); assay: ELISA, coated recombinant protein
Chain of recombinant human SIRPγ (ACROBiosystems) (Q9P1W8 29-360 limits assumed): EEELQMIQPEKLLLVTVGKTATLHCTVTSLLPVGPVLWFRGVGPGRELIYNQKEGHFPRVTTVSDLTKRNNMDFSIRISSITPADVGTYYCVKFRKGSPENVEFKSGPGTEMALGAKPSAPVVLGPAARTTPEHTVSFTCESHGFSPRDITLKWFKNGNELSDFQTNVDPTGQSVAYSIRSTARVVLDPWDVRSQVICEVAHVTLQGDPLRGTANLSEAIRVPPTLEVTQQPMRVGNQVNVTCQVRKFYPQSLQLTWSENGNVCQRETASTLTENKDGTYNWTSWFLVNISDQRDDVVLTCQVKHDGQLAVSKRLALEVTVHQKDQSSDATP
Method: as §1

recombinant human CD47 [4] = target: T3, recombinant human CD47 (human, UniProt Q08722 19-139); assay: ELISA, plate coated with 1 µg/mL recombinant human CD47, OD450
T3 construct: also called antigen CD47
T3 sequence (Q08722 19-139 limits assumed): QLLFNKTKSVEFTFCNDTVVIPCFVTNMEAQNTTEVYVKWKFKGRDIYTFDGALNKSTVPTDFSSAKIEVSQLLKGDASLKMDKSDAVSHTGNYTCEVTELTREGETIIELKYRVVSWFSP
Method: A 96-well high-adsorption ELISA plate was coated with 1 μg/mL of the recombinant human CD47 (Sino Biological Inc.) at 100 μL per well using carbonate buffer solution, pH=9.6 at 4° C. overnight. The plate was washed 5 times with PBST, and then blocked using PBST with 1% BSA, 300 μL/well, and incubated at 25° C. for 1 hour, and then washed 5 times with PBST. The anti-human CD47 antibody samples and the control CC-90002 (a patent sequence from WO2016109415) were added, 100 μL/well, incubated at 25° C. for 1 hour, and then washed 5 times with PBST. The horseradish peroxidase-labeled anti-mouse IgG antibody (Abcam, catalog number Ab7068) diluted 1:10000 in PBST with 1% BSA was then added, 100 μL per well, and incubated at 25° C. for 1 hour. The plate was washed 5 times with PBST. The colorimetric substrate TMB was added, 100 μL/well, and developed at room temperature for 10 minutes. 1M H₂SO₄ was added, 100 μL/well, to stop the development. The absorbance at 450 nm was read on a microplate reader.

[5] = target: T4, recombinant human CD47-Fc protein (ACROBiosystems, catalog number CD7-H52A5) (human, UniProt Q08722 19-139); assay: blocking ELISA: plate coated with human CD47-Fc, 2 nM biotin-labelled SIRPα as the blocked ligand, falling OD450 curve; the sheet labels the half-maximal value EC50
T4 construct: bought; not shown: Fc part of a bought fusion protein, not described
T4 sequence (Q08722 19-139 limits assumed): as above
Method: A 96-well high-adsorption ELISA plate was coated with 1 μg/mL of the recombinant human CD47-Fc (ACROBiosystems) at 100 μL per well using carbonate buffer solution, pH=9.6 at 4° C. overnight. The plate was washed 5 times with PBST, and then blocked using PBST with 1% BSA, 300 μL/well, and incubated at 25° C. for 1 hour, and then washed 5 times with PBST. The anti-human CD47 antibody samples were added, 50 μL/well, the biotin-labelled SIRPα (ACROBiosystems) was added at a concentration of 4 nM (a final concentration of 2 nM), 50 μL/well, incubated at 25° C. for 90 minutes, and then washed 5 times with PBST. The Streptavidin-HRP (BD Pharmingen, catalog number 554066) diluted 1:1000 in PBST with 1% BSA was then added, 100 μL per well, and incubated at 25° C. for 1 hour. The plate was washed 5 times with PBST. The colorimetric substrate TMB was added, 100 μL/well, and developed at room temperature for 10 minutes. 1M H₂SO₄ was added, 100 μL/well, to stop the development. The absorbance at 450 nm was read on a microplate reader.

recombinant human CD47 [6] = target: T3, recombinant human CD47; assay: SPR, Biacore X100, antibody captured on Protein A chip, CD47 as analyte
From the text: Biacore X100 instrument (purchased from GE) was used to detect the kinetic constant of the chimeric anti-human CD47 monoclonal antibodies binding to its antigen human CD47. This instrument utilizes optical surface plasmon resonance technology to detect the association and dissociation between the molecules coated on the biochip and the molecules to be tested. The main reagent used is Protein A chip (GE Healthcare, 29-1275-57). The experimental procedure is briefly described as follows: the chimeric anti-human CD47 antibodies were diluted in running buffer (1×HBS-EP+10 mM HEPES, 150 mM NaCl, 3 mM EDTA, 0.05% surfactant P20, pH7.4). During the capture-binding phase, the antibodies at a concentration of 2 μg/mL were injected for 60 seconds at a speed of 10 μL/min. During the binding phase, the antigen CD47 was diluted into multiple concentrations with running buffer, injected for 120 seconds at a speed of 30 μL/min respectively. During the dissociation phase, running buffer was injected for 600 seconds at a speed of 10 μL/min. The regeneration condition is 10 mM glycinate solution, pH1.5. Association kinetic constants and dissociation kinetic constants were analyzed and calculated by Biacore X100 evaluation software. The association kinetic constants, dissociation kinetic constants and dissociation equilibrium constants of the chimeric anti-human CD47 antibodies were shown in Table 7.

| Binder | binding result [1] | binding result [2] | binding result [3] | EC50 (recombinant human CD47 [4]) | IC50 [5] | Kd (recombinant human CD47 [6]) | koff (recombinant human CD47 [6]) | kon (recombinant human CD47 [6]) |
| --- | --- | --- | --- | --- | --- | --- | --- | --- |
| chimeric anti-human CD47 monoclonal antibody mAb-18-5 N297A (antibody, human IgG1, kappa, N297A, no further substitution applied) heavy: not shown light: DIVMTQSQKFMSTSVGDRVSITCKASQNVRTSIAWYQQKSGQSPKTLIYLASNRHTGVPDRFTGSGSGTDFTLTISNVQSEDLADYFCLQHWNYPFTFGSGTKLEIKRTVAAPSVFIFPPSDEQLKSGTASVVCLLNNFYPREAKVQWKVDNALQSGNSQESVTEQDSKDSTYSLSSTLTLSKADYEKHKVYACEVTHQGLSSPVTKSFNRGEC | no binding | no binding | no binding | 0.026 nM | 1.75 nM | – | – | – |
| chimeric anti-human CD47 monoclonal antibody mAb-18-10 (antibody, human IgG1, kappa) heavy: not shown light: DIVMTQSQKFMSTSVGDRVSITCKASQNVRTSIAWYQQKPGQSPKTLIYLASNRHTGVPDRFTGSGSGTDFTLTISNVQSEDLADYFCLQHWNYPFTFGSGTKLEIKRTVAAPSVFIFPPSDEQLKSGTASVVCLLNNFYPREAKVQWKVDNALQSGNSQESVTEQDSKDSTYSLSSTLTLSKADYEKHKVYACEVTHQGLSSPVTKSFNRGEC | no binding | no binding | no binding | 0.026 nM | 1.64 nM | 1.02 nM | 0.00101 s⁻¹ | 994000 M⁻¹ s⁻¹ |

Reference: patent publication US20250277031A1 (BEIJING HANMI PHARMACEUTICAL, published 2025)
